IC50 data for four molecules are collected here from patent publication US20140087995A1 (published 2014).

Numbering of substitutions follows the chain as printed. Numbered stars: 1 amine (or outer) side, 2 acyl side, 3 side chain; on linkers, the order of the positions; unused ones are H or OH. Bridge positions count the residues as written; N and C are the ends. * marks the point of attachment. C20 diacid = O=C(O)CCCCCCCCCCCCCCCCCCC(=O)*; γGlu = O=C(O)[C@H](CCC(=O)[*:2])N[*:1]; AEEA = NCCOCCOCC(=O)O

T1: human amylin receptor (amylin 3(a) receptor: human calcitonin receptor with RAMP-3) (human, UniProt P30988 25-474; O60896 24-148)
T1 construct: whole, on cells; also called hAmylin-R; hAmylinR
T1 sequence (looked up) 1: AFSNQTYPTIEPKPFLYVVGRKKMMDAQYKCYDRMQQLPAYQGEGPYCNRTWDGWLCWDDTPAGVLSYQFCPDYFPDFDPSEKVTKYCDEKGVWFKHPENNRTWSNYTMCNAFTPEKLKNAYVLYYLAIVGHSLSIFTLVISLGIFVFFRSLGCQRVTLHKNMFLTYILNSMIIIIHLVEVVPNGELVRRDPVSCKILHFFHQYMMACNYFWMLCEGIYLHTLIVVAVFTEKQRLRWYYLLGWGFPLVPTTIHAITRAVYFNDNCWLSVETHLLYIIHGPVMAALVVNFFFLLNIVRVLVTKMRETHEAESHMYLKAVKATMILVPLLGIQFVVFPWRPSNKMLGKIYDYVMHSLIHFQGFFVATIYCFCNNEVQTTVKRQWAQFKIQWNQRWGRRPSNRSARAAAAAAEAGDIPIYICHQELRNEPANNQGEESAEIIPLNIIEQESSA
T1 sequence (looked up) 2: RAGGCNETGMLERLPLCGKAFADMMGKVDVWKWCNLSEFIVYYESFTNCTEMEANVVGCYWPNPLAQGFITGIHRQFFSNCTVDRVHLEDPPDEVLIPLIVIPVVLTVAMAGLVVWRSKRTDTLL

B1: N^α1-[2-[2-[2-[[2-[2-[2-[[(4S)-4-carboxy-4-(19-carboxynonadecanoylamino)butanoyl]amino]ethoxy]ethoxy]acetyl]amino]ethoxy]ethoxy]acetyl]-[Glu14,Arg17,Pro21,Pro27 … (peptide)
peptide: KCNTATCATQRLAEFLRHSSPNFGAIPSSTNVGSNTY
modifications: C20 diacid-gGlu-2xOEG on alpha amino group of N-terminal Lys 1; Cys2-Cys7 disulfide; C-terminal amide
notes: also called 19; compound 19
B2: N^α1-[(4S)-4-carboxy-4-(19-carboxynonadecanoylamino)butanoyl]-[Arg17,Pro21,Pro27,Arg34]-h-amylin (peptide)
peptide: B1 peptide with E14N, S34R
modifications: C20 diacid-gGlu on alpha amino group of N-terminal Lys 1; Cys2-Cys7 disulfide; C-terminal amide
notes: also called 39; compound 39
B3: N^α1-[(4S)-4-carboxy-4-(19-carboxynonadecanoylamino)butanoyl]-[Arg17,Pro21,Pro27,Glu35]-h-amylin (peptide)
peptide: B1 peptide with E14N, N35E
modifications: C20 diacid-gGlu on alpha amino group of N-terminal Lys 1; Cys2-Cys7 disulfide; C-terminal amide
notes: also called 23; compound 23
B4: N^α1-[2-[2-[2-[[2-[2-[2-[[(4S)-4-carboxy-4-(19-carboxynonadecanoylamino)butanoyl]amino]ethoxy]ethoxy]acetyl]amino]ethoxy]ethoxy]acetyl]-[Glu14,Arg17,Pro21,Pro27 … (peptide)
peptide: {C20 diacid-γGlu-AEEA-AEEA}-KCNTATCATQRLAEFLRHSSPNFGAIPSSTNVGSNTP-NH2
modifications: disulfide 2-7
SMILES: CC[C@H](C)[C@H](NC(=O)[C@H](C)NC(=O)CNC(=O)[C@H](Cc1ccccc1)NC(=O)[C@H](CC(N)=O)NC(=O)[C@@H]1CCCN1C(=O)[C@H](CO)NC(=O)[C@H](CO)NC(=O)[C@H](Cc1c[nH]cn1)NC(=O)[C@H](CCCNC(=N)N)NC(=O)[C@H](CC(C)C)NC(=O)[C@H](Cc1ccccc1)NC(=O)[C@H](CCC(=O)O)NC(=O)[C@H](C)NC(=O)[C@H](CC(C)C)NC(=O)[C@H](CCCNC(=N)N)NC(=O)[C@H](CCC(N)=O)NC(=O)[C@@H](NC(=O)[C@H](C)NC(=O)[C@@H]1CSSC[C@H](NC(=O)[C@H](CCCCN)NC(=O)COCCOCCNC(=O)COCCOCCNC(=O)CC[C@H](NC(=O)CCCCCCCCCCCCCCCCCCC(=O)O)C(=O)O)C(=O)N[C@@H](CC(N)=O)C(=O)N[C@@H]([C@@H](C)O)C(=O)N[C@@H](C)C(=O)N[C@@H]([C@@H](C)O)C(=O)N1)[C@@H](C)O)C(=O)N1CCC[C@H]1C(=O)N[C@@H](CO)C(=O)N[C@@H](CO)C(=O)N[C@H](C(=O)N[C@@H](CC(N)=O)C(=O)N[C@H](C(=O)NCC(=O)N[C@@H](CO)C(=O)N[C@@H](CC(N)=O)C(=O)N[C@H](C(=O)N1CCC[C@H]1C(N)=O)[C@@H](C)O)C(C)C)[C@@H](C)O
notes: also called 20; compound 20

The IC50 is the midpoint of a concentration-inhibition curve.

The assay deals with T1, human amylin receptor (amylin 3(a) …). In words: SPA displacement of 125I-rat amylin, hAmylin 3(a) receptor membranes. The procedure:
The binding assay was performed using scintillation proximity assay (SPA) beads (RPNQ0001) from PerkinElmer and cell membranes from the Amylin 3(a)/CRE-luc cells (as described in Assay (II)) were used. Membranes were prepared in the following way; the cells were rinsed with PBS and incubated with Versene for approximately 5 min before harvesting. The cells were flushed with PBS and the cell-suspension was centrifuged for 5 min at 1000 rpm. Cells were homogenized (ultrathurrax) in a buffer containing 20 mM Na-HEPES and 10 mM EDTA (pH 7.4) and centrifuged at 20.000 rpm for 15 min. The resulting pellet was resuspended, homogenized and centrifuged (20.000 rpm, 15 min) in a buffer containing 20 mM Na-HEPES and 0.1 mM EDTA (pH 7.4, buffer 2). The resulting pellet was resuspended in buffer 2 and protein concentration was measured (BCA protein Assay, Pierce). The homogenate was kept cold during the whole procedure. The membranes were kept at −80° C. until use. The assay was performed in a 384 well Optiplate (PerkinElmer) in a total volume of 40 ul. Membranes were mixed with SPA beads. Final concentration of membranes 35 ng/μL final and SPA beads was 0.05 mg/well. Test-compounds were dissolved in DMSO and further diluted in assay buffer (50 mM Hepes, pH 7.4, 1 mM CaCl2, 5 mM MgCl₂, 0.1% OA and 0.02% Tween20). […] The final mixture was incubated with shaking at 400 rpm for 120 min at 25° C. prior to centrifugation (1500 rpm, 10 min). Samples were analyzed on TopCounter™ (Packard). The IC₅₀ was calculated using (one site binding competition analysis) GraphPad Prism5 as a measure of receptor affinity.
A general note: Loss of bound radioactivity is the signal in a displacement assay; it reports binding, not function.
For the molecule B1, the IC50 came out at 0.556 nM.
The figure for B2 is 0.665 nM; for B3 it is 0.871 nM.
The figure for B4 is 0.217 nM.
